Reference: the nanobody polyreactivity screen of Harvey et al. (2022)

Experiment: yeast display, Sf9 membrane polyspecificity reagent, FACS + sequencing; frameworks hold sequencing errors
Method in brief: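 Using colony PCR, genes from sorted yeast display clones were amplified, then sequenced on MiSeq at 2 × 250 and filtered by CDR length. The clones had been stained with 10% biotinylated, detergent-solubilized Sf9 membrane reagent for 1 hour at 4 °C and sorted by FACS into low and high (top ~1%) gates on anti-HA and streptavidin fluorescence. Polyreactivity labels come from the gate of origin.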

## QVQLVESGGGLVQAGGSLRLSCAASGRIIVKYAMRSYRQAPGKERELVAAITNSGGRTYYAACVKGRFTISRDNAKNTVYFQMNSLKPEDTAVYYCAALFHASTRQMDYWGQGTQVTVSS
  polyreactivity (PSR sort gate): high polyreactivity

## QVQLVESGGGLVQAGGSLRLSCAASGRTFKPYAMGWYRQAPGKERELVAAISTRGGSTYADSVKGRFTISRDNAKNTVYLQMNSLKPEDTAVYSCAAVYYRASARKFGYWGQGTQVTVSS
  polyreactivity (PSR sort gate): low polyreactivity

## QVHLVESGGGLVQARVSLRLSCAASGSTFFVYTMGWYRQAPGKETEFVATIRRGGNTYADSVKGRFTISRDNAKNSVYLQMNSLKPEDTAVYFCAVVVYQGFRSKYYYWGQGTQVTVSS
  polyreactivity (PSR sort gate): high polyreactivity

## QVQLVESGGGLVQAGGSLRLSCAASGGTFYLNAMGWYRQAPGKERELVAGITWGGGRTYYADSVKGRFTISRDNAKNTVYLQMNSLKQEDTEVYYCAAGAWRGPYSGYYYWGQGTQVTVSS
  polyreactivity (PSR sort gate): low polyreactivity

## QVQLVESGGGLVQAGGSLRLSCAASGRTFVPNAMGWYRQAPGKERELVAAISDSGGSTYYADSVKGRFTISRDNAKNTVYLQMNSLKPEDTAVYYCATDVTTYVGWEHGFNYWGQGTQVTVSS
  polyreactivity (PSR sort gate): low polyreactivity

## QVQLVESGGGLVQAGGSLRLSCAASGFIFRYYAMGWYRQAPGKERELDAAISGSGGSTYYADSVKGRFTISRDNAKNTVYLQMNSLKPEDTAVYYCAKSYGSHRKIRTSFGYWGQGTQVTVSS
  polyreactivity (PSR sort gate): high polyreactivity

## QVQLVESGGGLVQAGGSLRLSCAASGSTFIFYAMGWYRQAPGKERELVAAISSGGITNYADSVKGRFTISRDNAKNTVYLQMNSLKPEDTAVYYCAKRKGPRWSRQYRYPYYSWGQGTQVTVSS
  polyreactivity (PSR sort gate): high polyreactivity

## QVQLVESGGGLVQAGGSLRLSCAASGSTFATYTMGWYRQAPGKERELVAAISVSGSRTYYADSVKGRFTISRDNAKNTVYLQMNSLKPEDTAVYYCNTLLRPRWSYDYWGQGTQVTVSS
  polyreactivity (PSR sort gate): high polyreactivity

## QVQLVESGGGLVQAGGSLRLSCAASGRIFRANAMGWYRQAPGKEGELVAAISRSAGSTYYADSVKGRFTISRDKAKNTVYLQMNSLKPEDTAVYYCAAVVRNPGTYDYWGQGTQVTVSS
  polyreactivity (PSR sort gate): high polyreactivity

## QDQHVESGGGLVQAGGSLRLSCDASGITFWYYAMGWYRQAPGKERELVAAISRRGGATYYADSVKGRFTISRDNAKNTVYLQLNSLKPEDTAVYYCNALLAGRRVARGYDSWGQGTQVTVSS
  polyreactivity (PSR sort gate): high polyreactivity

## QVQLVESGGGLVQAGVSLRLSCAASGINFTRYAMGWYRQAPGKERELVAAITRNGVSTYYADSVKGRFTISRDIAKNSVYLQMKSLKPEDTAVYYCNTFVLRRYAYCYWGQGTQVTVSS
  polyreactivity (PSR sort gate): high polyreactivity

## QVQLVESGGGLVQAGGSLRLSCAASGSTFDLNAMGWYRQAPGKERELVARISSVGSTNYADSVKGRFTISRDNAKNTVYLQMNSLKPEDTAVYYCNAGFWDLYDYWGQGTQVTVSS
  polyreactivity (PSR sort gate): low polyreactivity

## QVQLVESGGGLVQAGGSLRLSCAASGRIFGENAMGWYRQAPGKEWEFVAVISISDASTYYADSVKGRFTISRDNAKNSVDFQMNSLKPEDTAVYYCAADLTDFLYVASDYWGQGTQVTVSS
  polyreactivity (PSR sort gate): low polyreactivity

## QVQLVESGGGLVQAGGSLRLSCAASGIIFARNAMGWYRQAPGKERELVATISRNGGRTYYADSVKGRFTISRDNAKNTVYLQMNSLKPEDTAVYYCARPYYGSWHSYGVDYWGQGTQVTVSS
  polyreactivity (PSR sort gate): high polyreactivity

## QVQLVESGGGLVQAGGSLRLSCAASGRTFGYYAMGWYRPAPGKERELVAAISSGGGTYYADSVKGRFTISRDNAKNTVYLQRNSLNPEASAVYYIAATGWLYWGQFYYWGQGTLVTVSS
  polyreactivity (PSR sort gate): low polyreactivity

## QDQLVDSGGGLVQAGGSLRLSCAASGSNFCGKAMGWYRQAPGKEREFVAAITRSGGSTYYADSVKGRFTISRDNAKNTVYLQMNSLKPEDTAVYYCNRDYAFKHHRAGYGYWGQGTLVTVSS
  polyreactivity (PSR sort gate): low polyreactivity

## QVQLVESGGGLVQAGGSLRLSCAASGRILYGNAMGWYRKAPGKERELVAAITRRGGSTYYADSVKGRFTISRDNAKNTVYLQMNSLKPEDTAVYYCNKVVGYRDTDFDYWGQGTQVTVSS
  polyreactivity (PSR sort gate): high polyreactivity

## QVQLVESGGGLVQAGGSLRLSCAASGSTFTGNAMGWYSQAPGKERELVAAISRSGGRTYYADSVKGRFTISRDNAKNTVYLQMNSLKPEDTAVYYCNAVRNRGQRTAFDYWGQGTQVTVSS
  polyreactivity (PSR sort gate): high polyreactivity

## QVQLVESGGGLVQAGGSLRLSCAASGRIFARNAMGWYRQAPGKERELVAGITWSGSSTYYADSVKGRFTISRDNAKNTVYLQMNSLKPEDTAVYYCAVDYYVGSLRIDHDYWGQGTQVTVSS
  polyreactivity (PSR sort gate): low polyreactivity

## QVQLVESGGGLVQAGGSLRLSCAASGRIFYVYAMGWYRQAPGKERELVADITRDGNTNYADSVKGRFTISRDNAKNTVYLQMNSLKPEDTAVYYCAAGGYPGTTYYGYDYWGQGTQVTVSS
  polyreactivity (PSR sort gate): low polyreactivity

## QVQLVESGGGLVQAGGSLRLSCAASGSTFDVNAMGWYRQAPGKERELVAAISWNSGSTYYADSVKGRFTISRDNAMITVFLQMNSLKPEDTAVYYCAATYGTGRRSKYGYWGQGSQVTVSS
  polyreactivity (PSR sort gate): high polyreactivity

## QVQLVESGGGLVQAGGSLRLICAASGSIFHRYTMGWYRQAPGKERELVAAINYSGSTTHYADSVKGRFTISRDNAKNTVYLQMNSLKPEDTAVYYCAAGSTRWYPTRVRYDYWGQGTQVTVSS
  polyreactivity (PSR sort gate): low polyreactivity

## QVQLVESGGCLVPAGGSLRLSGAASGSTYHFYAMGWYRHAQGKERELVASITSRGGNTHYADSVKGRFRISRDNAKNTVYFQMNSLKPEVTAVYSCAASGGWYGTYDYWGQGTQVTVSS
  polyreactivity (PSR sort gate): low polyreactivity

## QVQLVESGGCLVQAGGSLRLSCAASGFIFSEYAMGWYRQAPGKERELVVAIDVGGGSTYYADSVKGRFTISRDNAKNTVYLQMNSLKPEDTAVYYCAATQYGYWVPYQGFDYWGLGTQVTVSS
  polyreactivity (PSR sort gate): low polyreactivity

## QLQLVESGGGLVQAGGSLRLSCAASGSTFVYYAMGWYRPAPGKERELVAGITSSGGSTYYADSVKGRFTISRDNAKNTVYLQMNSLKPEDTAVYYCAAYVWVQQGRYYYWGQGTQVTVSS
  polyreactivity (PSR sort gate): low polyreactivity

## QVQLVESGGGLVQAGGSLRLSCAASGITFASNTMGCYIQAPGKERELVAAITRGDNTYYADSVKGRFTISRDNAKNTVYLQMNSLKAEDPAVYYCATEGYQIQYEHDYWGQGTQVTVSS
  polyreactivity (PSR sort gate): low polyreactivity

## QVQLVESGGGLVQAGGSLRLSCAASGSIFTDNVMGWYSQAPGKERELVAAITYSAASTYYADSVKGRFTISRDNAKNTVYLQMNSLKPEDTAVYYCNARIIYRKWLFRSGTFNYWGQGTQVTVSS
  polyreactivity (PSR sort gate): low polyreactivity

## QVQLVESGGGLVQAGGSLRLICAASGITFDGYAMGWYRQAPGKERELVAAISWSGGRTYYADSVKGRFTISRDNAKNTVYLQMNSLKPEDTAVYYCAVYRRGVVYLLTSGVDYWGQGTQVTVSS
  polyreactivity (PSR sort gate): high polyreactivity

## QVQLVESAGGLVQAGGSLRLSCAASGRIFWLYAMGWYRQAPGKERELVASISQSGANTYYADSVKGRFTISRDNSKNNVYLQMNCLKPEYTSVDYCSSNRYDSYYFWVGYWGQGSQVTVSS
  polyreactivity (PSR sort gate): low polyreactivity

## QVQLEVSGGGLVQAGGSIRLSCAASGSTFGGNAMGWYRQAPRKERELVAAIDSGGSTYADSVKGRFTISRDNAKNTVYLQMNSLKPEDTAVYYCADWFSAYYSLYRHRGYWGQGTQVTVSS
  polyreactivity (PSR sort gate): low polyreactivity

## QVQLVESGGGLVQAGGSLRLICDASGFTFSPNAMGWYRQAPGKERELVAAIDWSGDRTYYADSVKGRFTISRDNAKNTVYLQMNSLKPEDTAVYYCNDVRRSPGDYSYYYWGQGTQVTVSS
  polyreactivity (PSR sort gate): low polyreactivity

## QVQLVESGGGLVQAGGSLGLSCAASGSILYYNAMGWYRQAPGKERELVAAISWSGGSKYDADSVKGRFTISRDNAKNTVYLQMNSQKPEDTAVYYCLYYRSDEMDYWGQGTQVTVSS
  polyreactivity (PSR sort gate): high polyreactivity

## QVKLVESGGGLVQAGGSLRLSCAASGFTYFINGMGWYRQAPGKERQLVAAIRSSGASTYYADSVKGRFTISRDNAKNTVYLQMNSLKPEDTAVYYCNARSSVCNSGADYDYWGQGTQVTVSS
  polyreactivity (PSR sort gate): low polyreactivity

## QVQLVESGGGLVQAGGSLRLSCAASGRISQIYAMGWYRQAPGKERELVASISSSGSRTYYADSVKGRFTISRDNAKNTVYLQMNSLKPEDTAVYYCAARWWARSRGPYDYWGQGTQVTVSS
  polyreactivity (PSR sort gate): high polyreactivity

## QVQLVESGGGLVQAGGSLRLSCAASGSTFTAYAMGWYRQAPGKERQLVAAISKRSGVTYYADSVKGRFTISRDNAKNTVYLQINSLKPEDTAVYYCGQGTQVTVSS
  polyreactivity (PSR sort gate): low polyreactivity

## QVQLVESGGGLVQAGGSLRLSCAASGFTFTRNAMGWYRQAPGKERELVAAITSSGGRTYYADSVKGRFTISRDNAKNTVYLQMNSLKPEDTAVYYCAVYPRYSLPARDYDYWGQGTQVTVSS
  polyreactivity (PSR sort gate): high polyreactivity

## QVQLVESGGGLVQAGGSLRLSCAASGFIFKRYTMGWYRPAPGKERELVATINWNGGNTYYADSVKGRFTISRDNAKNTVYLQMNSLKPEDTAVYYCNARYWRGQGWPGYDYWGQGTQVTVSS
  polyreactivity (PSR sort gate): high polyreactivity

## QVQLVESGGGLVQAGGSLRLSCAASGRTFRYNTMGWYRQAPGKERELVAALTYRGGRTYYADSVKGRFTISRDHAKNTVYLQMNSLKPEDTAVYYCARDYYGSVRFDHWGQGTQVTVSS
  polyreactivity (PSR sort gate): high polyreactivity

## QVQLVESGGGLVQAGGSLRLSCAASGSIIDQYVMGWYRQAPGKERELVADISIRGGSTYYADSVKGRFTISRDNAKNTVYFQMNSLKPEDTAVYYCNADEWWGYPWEEDDYWGQGTQVTVSS
  polyreactivity (PSR sort gate): low polyreactivity

## QVQLVESGGGLVQAGGSLRLSCAASGGIFPDYAMGWYRQAPGKERELVAVISDSGGSTYYADSVKGRFTISRDNAKNTVYLQMNSLKPEDTAVYYCSAETEWYYGYYEYWGQGTQVTVSS
  polyreactivity (PSR sort gate): high polyreactivity

## QVQLVESWAGLVQAGGSLRLSCAASGSTFSGYTMGWYRQAPGKEREFVAAISSRGGSTYYADSVKGRFTISRDNAKNTVYLHMNSLKPEDTAVYYCAAKVWARVDGRQFRMEYWGQGTQVSVSS
  polyreactivity (PSR sort gate): high polyreactivity

## QVQLVESGGGLVQAGGSLRLSCAASGFTISVYAMGWYRQAPGKERELVAAISWNGGRTYYAVSVKGRFTISRDNAKNTVYLQMNSLKPEDSAVYYCNKVSGYDVDYWGQGTQVTVSS
  polyreactivity (PSR sort gate): high polyreactivity

## QVQLVESGGGLVQAGGSLRLSCAASGIIFALNAMGWYRQAPGKERELVATIDSTSGSTYYADSVKGRFTISRDNAKNTVYLQMNSLKPEDTAVYYCAVVHAQSAPMDYWGQGTQVTVSS
  polyreactivity (PSR sort gate): low polyreactivity
